Biological target: T1, recombinant HIV-1 Nef (SF2) with C-terminal hexahistidine tag (HIV-1 (SF2), UniProt P03407)
T1 construct: also called Nef protein; Nef-Sepharose
Assay: SPR; in vitro; estimate of the affinity; who was immobilised and the conditions are not told in the text (Supplementary Fig. 5)
Conditions: both partners purified

T1 sequence (P03407 whole entry): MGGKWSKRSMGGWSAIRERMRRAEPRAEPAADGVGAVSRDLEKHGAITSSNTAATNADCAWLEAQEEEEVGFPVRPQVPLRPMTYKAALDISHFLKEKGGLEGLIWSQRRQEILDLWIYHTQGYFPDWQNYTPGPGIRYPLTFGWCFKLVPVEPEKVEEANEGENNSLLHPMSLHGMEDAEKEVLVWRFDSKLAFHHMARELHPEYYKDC

B1: recombinant human GABARAP (natural protein)
chain: MKFVYKEEHPFEKRRSEGEKIRKKYPDRVPVIVEKAPKARIGDLDKKKYLVPSDLTVGQFYFLIRKRIHLRAEDALFFFVNNVIPPTSATMGQLYQEHHEEDFFLYIAYSDESVYGL
notes: also called 15N-GABARAP; [U-15N]-GABARAP
- Kd: ~20 µM

— article PMC5519724, “Direct binding to GABARAP family members is essential for HIV-1 Nef plasma membrane localization” (Scientific Reports, 2017)
